Experiment [1] concerns the target Human CD38 (soluble analyte in the SPR assay) (human, UniProt P28907 43-300). Briefly: SPR (Biacore), antibody captured on Protein A from supernatant, CD38 injected; weakest KD among the separate SPR experiments. Background: SPR reads the build-up and loss of mass on a sensor chip optically.
Experiment [2] deals with T1, interferon-alpha/β receptor (IFNAR) (human, UniProt P17181).
T1 sequence (receptor (subunits not named in the filing), looked up): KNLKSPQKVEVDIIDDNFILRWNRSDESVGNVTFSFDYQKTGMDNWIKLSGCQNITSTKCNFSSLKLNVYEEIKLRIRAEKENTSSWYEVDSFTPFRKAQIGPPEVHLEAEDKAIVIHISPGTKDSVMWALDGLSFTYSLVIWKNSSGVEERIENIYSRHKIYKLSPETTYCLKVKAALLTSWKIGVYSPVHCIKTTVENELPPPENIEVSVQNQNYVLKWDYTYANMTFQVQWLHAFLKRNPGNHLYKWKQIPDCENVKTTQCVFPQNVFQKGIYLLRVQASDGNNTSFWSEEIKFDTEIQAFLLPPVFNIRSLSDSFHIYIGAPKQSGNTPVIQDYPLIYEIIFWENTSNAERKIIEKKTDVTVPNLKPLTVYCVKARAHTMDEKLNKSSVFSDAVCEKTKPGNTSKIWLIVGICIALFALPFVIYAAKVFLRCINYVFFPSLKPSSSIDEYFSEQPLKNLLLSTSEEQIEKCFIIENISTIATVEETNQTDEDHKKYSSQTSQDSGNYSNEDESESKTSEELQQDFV
Briefly: cell-based or functional assay.

In experiment [3] the target is Human CD38 on CD38-positive myeloma cell lines ARP-1 and H929 (human, UniProt P28907 43-300). Briefly: flow cytometry on ARP-1 cells, purified protein. For orientation: A flow cytometer gives signals particle by particle.
Experiment [4] concerns the target T2, Human CD38 on CD38-positive myeloma cells (ARP-1, H929) (human, UniProt P28907 43-300).
T2 construct: Endogenous CD38 on the human myeloma cell lines ARP-1 and H929, used in flow cytometry; also called NCI-H929
Description: flow cytometry, ARP-1 cells (CD38-positive).

Experiment [5] concerns the target T3, Human CD38 (human, UniProt P28907 43-300). Briefly: SPR (Biacore), antibody from supernatant captured on Protein A, human CD38 injected, 1:1 fit.
The target of experiment [6] is T3, Human CD38. Briefly: SPR (Biacore), the experiment for all other antibodies of Table 7.
Experiment [7] concerns the target T3, Human CD38. Briefly: SPR (Biacore), the separate experiment in which X02.107 was evaluated.
For experiment [8], the target named is T2, Human CD38 on CD38-positive myeloma …. Description: flow cytometry, ARP-1 cells (CD38-positive). This is another data set of the same source.
Experiment [9] has as its target T3, Human CD38. Briefly: SPR (Biacore), antibody from supernatant captured on Protein A, human CD38 injected, 1:1 fit. The source holds these as a separate data set.
Experiment [10] deals with T3, Human CD38. Described as above. This is another data set of the same source.
For experiment [11], the target named is T3, Human CD38. The experiment is described as above. The source holds these as a separate data set.
For experiment [12], the target named is T2, Human CD38 on CD38-positive myeloma …. Briefly: flow cytometry, ARP-1 cells (CD38-positive). This is another data set of the same source.
The target of experiment [13] is T3, Human CD38. Description: SPR (Biacore), antibody from supernatant captured on Protein A, human CD38 injected, 1:1 fit; separate experiment in which X02.1 gave 2.7 × 10^-8.

Residue numbers refer to the chain shown, from its start. Names may count otherwise. Read-outs that look alike come from different tables or passages of the source.

B1: X02.1 (antibody, human IgG4 S228P, lambda)
heavy: not shown
light: QAVLTQPASLSASPGESARLTCTLPSDINVRYYNIYWYQQKPGSPPRYLLYYYSDSHKGQGSGVPSRFSGSKDVSTNSGILLISGLQSEDEADYYCMTWSSNGSGVFGGGTQLTVLGQPKAAPSVTLFPPSSEELQANKATLVCLISDFYPGAVTVAWKADSSPVKAGVETTTPSKQSNNKYAASSYLSLTPEQWKSHRSYSCQVTHEGSTVEKTVAPTECS
notes: also called parental antibody X02.1; unfused form of A02.1 (X355/02)
One may read the Kd as the equilibrium constant for the complex coming apart. Lower therefore signals tighter binding. For B1, the Kd in experiment [1] was in the range of 0.378 to 27 nM.

B2: A02.6 (wt. IFN) (antibody)
chain 1: QLQLQESGPGLVKPSETLSLTCTVSGGSISSSSYYWSWIRQHPGKGLEWIGYIYYSGSTNYNPSLKSRVTISVDTSKNQFSLKLSSVTAADTAVYYCARVGGAGGWPMDVWGQGTTVTVSS
chain 2: QAVLTQPASLSASPGESARLTCTLPSDINVRYYNIYWYQQKPGSPPRYLLYYYSDSHKGQGSGVPSRFSGSKDVSTNSGILLISGLQSEDIATYYCMTWSSNGSGVFGGGTQLTVLG
For the molecule B2, the “EC50; HEK-Blue IFN-alpha/β SEAP reporter (A630) on CD38-negative cells, the unit comes from the x axis 'IFN pM'” value in experiment [2] is 667 pM.

B3: A02.1 (antibody)
heavy: B2 chain 1 with S76L, F80I, K83R, S85T
light: B1 light
notes: Anti-CD38 IgG4 fused to attenuated IFN-alpha2b A145D at the heavy chain C-terminus; also called X355/02-HC-L0-IFN-alpha (A145D) IgG4
For orientation: EC50 means the midpoint of the concentration-response curve. A lower EC50 goes with higher potency in that assay. Consider B3, for which, in experiment [3], the half-maximal effective concentration (EC50) was determined as 1.45 µg/mL.

B4: X02.85 (antibody, V domains shown)
VH: B2 chain 1 with S76L, F80I, K83R, S85T
VL: QAVLTQPASLSASPGESARLTCTLPSDINVRYYNIYWYQQKPGSPPRYLLYYYSDSHKGQGSGVPSRFSGSKSTNSGILLISGLQSEDEADYYCMTWSSNGSGVFGGGTQLTVLG
notes: IgG4 S228P with the X02.1 VH; VL residues D(L66A) and V(L66B) of A02.1 are deleted
For the molecule B4, in experiment [4], the EC50 was found to be 6.3 µg/mL. This molecule gave a Kd in [5] of 0.27 nM.

B5: X02.1 (antibody, human IgG4 S228P)
heavy: not shown
VL: B2 chain 2 with I91E, T93D
notes: Human IgG4 S228P, not fused to IFN; also called parental antibody X02.1
As for B5, the results for the Kd in [6] and in experiment [7] were 0.378 nM and 27 nM, respectively.

B6: X02.8 (antibody, human IgG4 S228P)
heavy: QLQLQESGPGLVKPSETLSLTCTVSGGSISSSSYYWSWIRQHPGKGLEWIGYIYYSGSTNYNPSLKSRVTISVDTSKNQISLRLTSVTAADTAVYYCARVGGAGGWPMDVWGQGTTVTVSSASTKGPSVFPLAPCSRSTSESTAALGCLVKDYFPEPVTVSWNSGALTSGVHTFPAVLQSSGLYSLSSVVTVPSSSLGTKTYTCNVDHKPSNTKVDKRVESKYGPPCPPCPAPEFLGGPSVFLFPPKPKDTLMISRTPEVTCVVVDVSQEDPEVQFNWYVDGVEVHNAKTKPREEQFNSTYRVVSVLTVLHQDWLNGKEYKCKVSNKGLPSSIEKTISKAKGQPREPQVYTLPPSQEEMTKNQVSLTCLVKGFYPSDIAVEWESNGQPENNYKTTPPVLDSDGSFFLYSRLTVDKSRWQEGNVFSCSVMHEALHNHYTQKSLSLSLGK
VL: B2 chain 2 with I91E, T93D
notes: IgG4 S228P; VH L74S relative to X02.1
In experiment [8], B6 yielded an EC50 of 18.3 µg/mL. Moreover, the equilibrium dissociation constant (Kd) in [9] worked out at 23 nM.

B7: X02.71 (antibody, human IgG4 S228P)
heavy: not shown
VL: B2 chain 2 with I91E, T93D
notes: IgG4 S228P; VH I29V relative to X02.1
In turn, B7 returned a Kd in experiment [10] of 0.129 nM. This counts as sub-nanomolar.

B8: X02.83 (antibody)
heavy: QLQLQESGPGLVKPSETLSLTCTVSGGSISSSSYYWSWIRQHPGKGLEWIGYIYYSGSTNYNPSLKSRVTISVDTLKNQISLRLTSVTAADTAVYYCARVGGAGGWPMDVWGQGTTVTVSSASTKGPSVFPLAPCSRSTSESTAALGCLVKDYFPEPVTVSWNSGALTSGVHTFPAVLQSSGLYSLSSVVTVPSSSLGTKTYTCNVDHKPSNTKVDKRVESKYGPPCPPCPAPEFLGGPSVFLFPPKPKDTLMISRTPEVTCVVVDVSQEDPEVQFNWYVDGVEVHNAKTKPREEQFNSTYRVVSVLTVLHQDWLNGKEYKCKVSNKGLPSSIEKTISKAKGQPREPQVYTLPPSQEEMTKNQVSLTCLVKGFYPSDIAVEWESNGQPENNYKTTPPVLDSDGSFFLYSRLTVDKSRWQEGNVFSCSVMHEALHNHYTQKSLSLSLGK
VL: B2 chain 2 with E16A, I91E, T93D
notes: IgG4 S228P with the X02.1 VH; VL E17A relative to A02.1
In turn, B8 gave an EC50 in experiment [4] of 8.2 µg/mL. Moreover, the Kd in experiment [5] was determined as 2.69 nM.

B9: X02.76 (antibody, human IgG4 S228P)
heavy: not shown
VL: B2 chain 2 with I91E, T93D
notes: IgG4 S228P; VH M(100C)L relative to X02.1
Regarding B9, the Kd in [11] is 0.000158 nM.

B10: X02.74 (antibody, human IgG4 S228P, V domains shown)
VH: B2 chain 1 with S76L, F80I, K83R, S85T, M108L, D109E
VL: B2 chain 2 with I91E, T93D
notes: IgG4 S228P; VH M(100C)L, D101E relative to X02.1
B10: the Kd in experiment [11] is 0.0685 nM. Against the preceding molecule, the Kd is about 430-fold higher.

B11: X02.69 (antibody, human IgG4 S228P)
heavy: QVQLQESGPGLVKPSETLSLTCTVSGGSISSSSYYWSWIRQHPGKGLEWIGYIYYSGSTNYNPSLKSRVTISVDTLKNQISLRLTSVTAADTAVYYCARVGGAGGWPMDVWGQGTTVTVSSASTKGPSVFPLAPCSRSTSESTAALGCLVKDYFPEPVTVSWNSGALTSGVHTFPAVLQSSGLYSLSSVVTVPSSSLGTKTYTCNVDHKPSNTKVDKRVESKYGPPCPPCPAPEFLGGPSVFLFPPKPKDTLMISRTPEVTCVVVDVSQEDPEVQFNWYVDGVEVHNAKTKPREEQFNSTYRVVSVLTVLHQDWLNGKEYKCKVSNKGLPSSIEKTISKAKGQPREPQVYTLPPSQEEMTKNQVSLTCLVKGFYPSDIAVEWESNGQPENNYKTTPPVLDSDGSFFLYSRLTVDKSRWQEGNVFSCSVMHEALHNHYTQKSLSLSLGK
VL: B2 chain 2 with I91E, T93D
notes: IgG4 S228P; VH Q2V relative to X02.1
In [12], B11 displayed a half-maximal effective concentration (EC50) of 16.8 µg/mL. The molecule also had a Kd in experiment [10] of 0.0368 nM.

B12: X02.77 (antibody, human IgG4 S228P)
heavy: not shown
VL: B2 chain 2 with I91E, T93D
notes: IgG4 S228P; VH D101E relative to X02.1
As for B12, the Kd in [11] was found to be 0.00911 nM.

B13: X02.107 (antibody)
heavy: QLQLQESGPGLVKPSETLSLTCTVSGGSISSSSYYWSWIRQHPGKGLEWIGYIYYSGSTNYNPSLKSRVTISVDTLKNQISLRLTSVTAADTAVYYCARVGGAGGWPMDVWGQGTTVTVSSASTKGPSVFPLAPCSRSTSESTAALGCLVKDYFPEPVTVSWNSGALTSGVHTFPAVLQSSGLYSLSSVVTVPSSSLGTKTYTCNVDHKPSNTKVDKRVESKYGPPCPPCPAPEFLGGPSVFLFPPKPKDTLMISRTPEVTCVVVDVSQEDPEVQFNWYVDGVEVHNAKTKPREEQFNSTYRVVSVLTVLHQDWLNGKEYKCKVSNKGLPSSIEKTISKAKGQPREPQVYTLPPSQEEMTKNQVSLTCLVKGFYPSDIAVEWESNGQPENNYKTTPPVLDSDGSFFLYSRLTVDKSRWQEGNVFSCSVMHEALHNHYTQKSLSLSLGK
VL: B2 chain 2
notes: IgG4 S228P with the X02.1 VH; VL E83I, D85T relative to A02.1
In turn, B13 came in with a Kd in experiment [13] of 24.7 nM.

B14: X02.11 (antibody, human IgG4 S228P)
heavy: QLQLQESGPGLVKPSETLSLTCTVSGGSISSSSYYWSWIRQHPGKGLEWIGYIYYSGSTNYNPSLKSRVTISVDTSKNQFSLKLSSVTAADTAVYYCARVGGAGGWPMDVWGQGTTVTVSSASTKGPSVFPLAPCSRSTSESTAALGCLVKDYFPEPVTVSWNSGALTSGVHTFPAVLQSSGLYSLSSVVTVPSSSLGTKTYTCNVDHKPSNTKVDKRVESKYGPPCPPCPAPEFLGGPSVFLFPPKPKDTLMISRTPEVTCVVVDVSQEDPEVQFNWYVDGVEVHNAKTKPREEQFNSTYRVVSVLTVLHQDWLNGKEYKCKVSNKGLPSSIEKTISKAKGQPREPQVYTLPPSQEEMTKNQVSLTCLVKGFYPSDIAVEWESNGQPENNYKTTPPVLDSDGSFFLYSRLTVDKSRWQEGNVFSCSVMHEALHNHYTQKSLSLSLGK
VL: B2 chain 2 with I91E, T93D
notes: IgG4 S228P; VH L74S, I78F, R81K, T(82A)S relative to X02.1
The molecule B14 showed an EC50 in [8] of 18.1 µg/mL. The Kd in experiment [9] amounted to 23.9 nM.
